Biological target: BSA
Assay: ITC

B1: UBE2D1 (R&D) (enzyme)
chain: not shown
**Q.** Which Kd does the source give for B1 here?
**A.** Its Kd is greater than 10 mM.

— PMC8041205 (2021)
